Assays:
TNFα [1] = target: T1, TNFα (UniProt P01375 77-233); assay: ELISA, coated TNF-α, Ab 1.563 nM
Experimental: (§1) In this experiment, ELISA was used to assess the binding ability of monoclonal antibodies to TL1A homologous molecules. Representative members of the TNF ligand superfamily, TNFα, LT-α, LIGHT and FASL, were selected for binding testing. 1 μg/mL of TNFα, LT-α, LIGHT or FASL was coated in a microplate with a carbonate buffer solution at pH=9.6, 100 μL per well, and the microplate was incubated at 4° C. overnight. The microplate was then washed 5 times with PBST, blocked with 300 μL/well of PBS containing 1% BSA, and was incubated at room temperature for 1 hour. After washing 5 times with PBST, about 100 μL each of the M701 monoclonal antibodies and the control antibodies were added to each well, and were incubated at room temperature for 1 hour. After washing 5 times with PBST, 100 μL of HRP-anti-human Fc (Sino Biological) was added to each well, and was incubated at room temperature for 1 hour. After washing 5 times with PBST, 100 μL of colorimetric substrate TMB was added to each well, and color was developed at room temperature for 10 minutes, followed by addition of 1M sulfuric acid to terminate the reaction. OD450 nm was recorded on a microplate reader.

LT-α [2] = target: T2, LT-α (UniProt P01374 35-205); assay: ELISA, coated LT-α, Ab 0.391 nM
T2 sequence (looked up): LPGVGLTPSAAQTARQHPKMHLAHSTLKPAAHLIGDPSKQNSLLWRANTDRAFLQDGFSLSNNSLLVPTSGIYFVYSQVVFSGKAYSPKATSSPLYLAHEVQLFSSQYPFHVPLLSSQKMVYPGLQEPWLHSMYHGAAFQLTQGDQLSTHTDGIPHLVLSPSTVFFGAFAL
Experimental: as §1

FASL [3] = target: T3, FASL (UniProt P48023 134-281, limits assumed); assay: ELISA, coated FASL, Ab 0.391 nM
T3 sequence (looked up): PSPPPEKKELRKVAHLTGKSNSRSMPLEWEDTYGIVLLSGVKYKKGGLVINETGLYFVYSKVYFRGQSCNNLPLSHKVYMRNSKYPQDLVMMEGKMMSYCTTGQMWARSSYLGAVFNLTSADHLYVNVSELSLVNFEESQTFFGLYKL
Experimental: as §1

FASL [4] = target: T3, FASL; assay: ELISA, coated FASL, Ab 6.25 nM
Experimental: as §1

FASL [5] = target: T3, FASL; assay: ELISA, coated FASL, Ab 25 nM
Experimental: as §1

TNFα [6] = target: T1, TNFα; assay: ELISA, coated TNF-α, Ab 100 nM
Experimental: as §1

TNFα [7] = target: T1, TNFα; assay: ELISA, coated TNF-α, Ab 0.000 nM (blank)
Experimental: as §1

human TL1A (HuTL1A) [8] = target: T4, human TL1A (HuTL1A) (human, UniProt O95150 57-251, limits assumed, biotin-labelled in some assays (site not stated)); assay: DLS, antigen and antibody mixed in equal moles
T4 construct: Expressed in EXPI-293 cells and purified by Ni-NTA (His-tag); Described as a trimeric antigen; also called TL1A antigen; WT
T4 sequence: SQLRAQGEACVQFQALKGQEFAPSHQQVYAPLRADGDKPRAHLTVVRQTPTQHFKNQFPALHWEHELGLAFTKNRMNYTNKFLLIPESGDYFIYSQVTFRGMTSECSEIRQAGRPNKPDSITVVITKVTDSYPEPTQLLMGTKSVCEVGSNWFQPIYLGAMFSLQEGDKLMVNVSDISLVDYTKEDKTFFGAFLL
Experimental: 60 μM antigen and antibody was mixed in equal moles, incubated at room temperature for 30 minutes, and then the molecular size was detected using UNCLE or SEC.

LIGHT [9] = target: T5, LIGHT (UniProt O43557 74-240, limits assumed); assay: ELISA, coated LIGHT
Experimental: as §1

FASL [10] = target: T3, FASL; assay: ELISA, coated FASL, Ab 100 nM
Experimental: as §1

LT-α [11] = target: T2, LT-α; assay: ELISA, coated LT-α, Ab 100 nM
Experimental: as §1

TNFα [12] = target: T1, TNFα; assay: ELISA, coated TNFα
Experimental: as §1

LIGHT [13] = target: T5, LIGHT; assay: ELISA, coated LIGHT, Ab 1.563 nM
Experimental: as §1

FASL [14] = target: T3, FASL; assay: ELISA, coated FASL
Experimental: as §1

LIGHT [15] = target: T5, LIGHT; assay: ELISA, coated LIGHT, Ab 0.391 nM
Experimental: as §1

TNFα [16] = target: T1, TNFα; assay: ELISA, coated TNF-α, Ab 6.25 nM
Experimental: as §1

LT-α [17] = target: T2, LT-α; assay: ELISA, coated LT-α, Ab 0.000 nM (blank)
Experimental: as §1

LT-α [18] = target: T2, LT-α; assay: ELISA, coated LT-α, Ab 6.25 nM
Experimental: as §1

LT-α [19] = target: T2, LT-α; assay: ELISA, coated LT-α, Ab 25 nM
Experimental: as §1

FASL [20] = target: T3, FASL; assay: ELISA, coated FASL, Ab 0.000 nM (blank)
Experimental: as §1

LIGHT [21] = target: T5, LIGHT; assay: ELISA, coated LIGHT, Ab 100 nM
Experimental: as §1

LT-α [22] = target: T2, LT-α; assay: ELISA, coated LT-α, Ab 1.563 nM
Experimental: as §1

human TL1A (HuTL1A) [23] = target: T4, human TL1A (HuTL1A); assay: cell-based or functional assay
TNFα [24] = target: T1, TNFα; assay: ELISA, coated TNF-α, Ab 25 nM
Experimental: as §1

LIGHT [25] = target: T5, LIGHT; assay: ELISA, coated LIGHT, Ab 25 nM
Experimental: as §1

LIGHT [26] = target: T5, LIGHT; assay: ELISA, coated LIGHT, Ab 6.25 nM
Experimental: as §1

LT-α [27] = target: T2, LT-α; assay: ELISA, coated LT-α
Experimental: as §1

FASL [28] = target: T3, FASL; assay: ELISA, coated FASL, Ab 1.563 nM
Experimental: as §1

human TL1A (HuTL1A) [29] = target: T4, human TL1A (HuTL1A); assay: cell-based or functional assay; remark: listed apart in the source
LIGHT [30] = target: T5, LIGHT; assay: ELISA, coated LIGHT, Ab 0.000 nM (blank)
Experimental: as §1

TNFα [31] = target: T1, TNFα; assay: ELISA, coated TNF-α, Ab 0.391 nM
Experimental: as §1

T1 sequence (P01375 77-233 limits assumed): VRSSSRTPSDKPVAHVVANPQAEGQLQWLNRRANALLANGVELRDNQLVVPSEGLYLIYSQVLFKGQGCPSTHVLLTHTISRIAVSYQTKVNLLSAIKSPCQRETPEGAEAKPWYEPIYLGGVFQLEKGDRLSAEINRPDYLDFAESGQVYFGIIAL
T5 sequence (O43557 74-240 limits assumed): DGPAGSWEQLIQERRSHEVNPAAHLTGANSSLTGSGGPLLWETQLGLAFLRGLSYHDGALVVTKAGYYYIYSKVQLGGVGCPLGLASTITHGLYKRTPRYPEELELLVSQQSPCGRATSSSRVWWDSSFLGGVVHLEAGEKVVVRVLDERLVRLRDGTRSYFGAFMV

B1: M701-4019 (antibody, human IgG1, kappa, L234A L235A, V domains shown)
VH: ELQLQESGPGLVKPSETLSLTCAVSGVSFTDYHWAWIRQPPGKGLEWIGDINHRGHTNYNPSLKSRVTVSIDTSKNQFSLKLSSVTAADTAVYYCARDYPNFIYDYWGQGTLVTVSS
VL: DIQLTQSPGTLSLSPGERATLSCRASQSVSNYLAWYQQKPGQAPRLLIYGASRRATGIPARFSGSGSGTDFTLTISSLEPEDFAVYYCQQYAASPLTFGQGTKVEIKR
notes: Fc-engineered IgG1
For B1, the OD450 nm (TNFα [1]) was 0.057, the OD450 nm (LT-α [2]) was 0.0572 and the OD450 nm (FASL [3]) was 0.0506. For the same binder, the OD450 nm (FASL [4]) was 0.0529, the OD450 nm (FASL [5]) was 0.0612 and the OD450 nm (TNFα [6]) was 0.105. The OD450 nm (TNFα [7]) was 0.0748, the “Ave Z-dia (nm) of the antigen-antibody complex” value (human TL1A (HuTL1A) [8]) was 18.5 nm and the binding result (LIGHT [9]) was “no binding (tested: 100 nM)”. The OD450 nm (FASL [10]) was 0.0886, the OD450 nm (LT-α [11]) was 0.067 and the binding result (TNFα [12]) was “no binding (tested: 100 nM)”. The OD450 nm (LIGHT [13]) was 0.0539, the binding result (FASL [14]) was “no binding (tested: 100 nM)” and the OD450 nm (LIGHT [15]) was 0.0528. For the same binder, the OD450 nm (TNFα [16]) was 0.0591, the OD450 nm (LT-α [17]) was 0.0648 and the OD450 nm (LT-α [18]) was 0.0566. For the same binder, the OD450 nm (LT-α [19]) was 0.0627, the OD450 nm (FASL [20]) was 0.0602 and the OD450 nm (LIGHT [21]) was 0.0942. The OD450 nm (LT-α [22]) was 0.0602, the “IC50 (read off the curve); SEAP reporter in HEK293T/DR3-NFκB cells with soluble TL1A, OD655” value (human TL1A (HuTL1A) [23]) was ~1 nM and the OD450 nm (TNFα [24]) was 0.066. For the same binder, the OD450 nm (LIGHT [25]) was 0.061, the OD450 nm (LIGHT [26]) was 0.0572 and the binding result (LT-α [27]) was “no binding (tested: 100 nM)”. The OD450 nm (FASL [28]) was 0.0514, the “IC50 (read off the curve); IFN-γ of human T cells with IL-12, IL-18 and exogenous human TL1A” value (human TL1A (HuTL1A) [29]) was ~0.2 nM and the OD450 nm (LIGHT [30]) was 0.0563. The OD450 nm (TNFα [31]) was 0.0567.
